# Read-outs that look alike come from different tables or passages of the source.
# B1: Human GCAP3, N-myristoylated (natural protein)
# chain: MGNGKSIAGDQKAVPTQETHVWYRTFMMEYPSGLQTLHEFKTLLGLQGLNQKANKHIDQVYNTFDTNKDGFVDFLEFIAAVNLIMQEKMEQKLKWYFKLYDADGNGSIDKNELLDMFMAVQALNGQQTLSPEEFINLVFHKIDINNDGELTLEEFINGMAKDQDLLEIVYKSFDFSNVLRVICNGKQPDMETDSSKSPDKAGLGKVKMK
# modifications: N-myristoylated
# B2: Human GCAP2, N-myristoylated (natural protein)
# chain: MGQEFSWEEAEAAGEIDVAELQEWYKKFVMECPSGTLFMHEFKRFFKVTDDEEASQYVEGMFRAFDKNGDNTIDFLEYVAALNLVLRGTLEHKLKWTFKIYDKDGNGCIDRLELLNIVEGIYQLKKACRRELQTEQGQLLTPEEVVDRIFLLVDENGDGQLSLNEFVEGARRDKWVMKMLQMDMNPSSWLAQQRRKSAMF
# modifications: N-myristoylated
# B3: Human GCAP1 (E6S), N-myristoylated (natural protein)
# chain: MGNVMSGKSVEELSSTECHQWYKKFMTECPSGQLTLYEFRQFFGLKNLSPSASQYVEQMFETFDFNKDGYIDFMEYVAALSLVLKGKVEQKLRWYFKLYDVDGNGCIDRDELLTIIQAIRAINPCSDTTMTAEEFTDTVFSKIDVNGDGELSLEEFIEGVQKDQMLLDTLTRSLDLTRIVRRLQNGEQDEEGADEAAEAAG
# modifications: N-myristoylated
# B4: GCAP1-GFP (natural protein)
# chain: MGNIMDGKSVEELSSTECHQWYKKFMTECPSGQLTLYEFRQFFGLKNLSPWASQYVEQMFETFDFNKDGYIDFMEYVAALSLVLKGKVEQKLRWYFKLYDVDGNGCIDRDELLTIIRAIRAINPCSDSTMTAEEFTDTVFSKIDVNGDGELSLEEFMEGVQKDQMLLDTLTRSLDLTRIVRRLQNGEQDEEGASGRETEAAEADG
# What was measured:
# [1] = biological target: Ser838(g- r+):Ser838(g+ r-) RetGC1 dimer (human) (UniProt Q02846)
# [2] = biological target: Arg838(g- r+):Arg838(g+ r-) RetGC1 dimer (human) (UniProt Q02846)
# [3] = biological target: Ser838(g- r+):Arg838(g+ r-) RetGC1 heterodimer (human) (UniProt Q02846)
# [4] = biological target: mOrange-tagged WT human RetGC1 (human) (UniProt Q02846); test: co-localisation of fluorescent fusions in living cells (confocal microscopy, PCC); mOrange-RetGC1 co-expressed with GCAP1-GFP or RD3-GFP in HEK293 cells (GFP plasmid to RetGC1 plasmid ~1/100 molar ratio); confocal images 24-30 h after transfection; PCC of whole-cell images; the GFP proteins are diffuse without RetGC1 and go to the membrane cyclase when they bind; PCC < 0.6 indicates lack of co-localization
# [5] = biological target: R838S mOrange-RetGC1 (human) (UniProt Q02846); test: as above
# [6] = biological target: mOrange-tagged R666W RetGC1 (human) (UniProt Q02846); test: as above
# WT human RetGC1 (human) [7] = biological target: WT human RetGC1 (human) (UniProt Q02846)
# WT human RetGC1 (human) [8] = biological target: WT human RetGC1 (human) (UniProt Q02846); remark: listed apart in the source
# R666W RetGC1 (human) = R666W RetGC1 (human) (UniProt Q02846)
# [9] = biological target: mOrange-tagged WT human RetGC1 (human) (UniProt Q02846); test: co-localisation of fluorescent fusions in living cells (confocal microscopy, PCC); mOrange-RetGC1 co-expressed with GCAP1-GFP or RD3-GFP in HEK293 cells (GFP plasmid to RetGC1 plasmid ~1/100 molar ratio); confocal images 24-30 h after transfection; PCC of whole-cell images; the GFP proteins are diffuse without RetGC1 and go to the membrane cyclase when they bind; PCC < 0.6 indicates lack of co-localization; remark: listed apart in the source
# [10] = biological target: R838S mOrange-RetGC1 (human) (UniProt Q02846); test: as above; remark: listed apart in the source
# [11] = biological target: mOrange-tagged R666W RetGC1 (human) (UniProt Q02846); test: as above; remark: listed apart in the source
# [12] = biological target: mOrange-tagged R761W RetGC1 (human) (UniProt Q02846); test: as above
# [13] = biological target: mOrange-tagged L911F RetGC1 (human) (UniProt Q02846); test: as above
# [14] = biological target: mOrange-tagged G982VfsX39 RetGC1 (human) (UniProt Q02846); test: as above
molecule,measurement,setting,value
Recombinant human RD3 (from UniProt Q7Z3Z2 1-195) (natural protein),[RD3]1/2: RD3 concentration causing 50% inhibition of RetGC1 activity preactivated by 1.5 μM GCAP1 in 10 mM Mg2+ and 2 mM EGTA; pair acted on: GCAP1 with the cyclase dimer,[1],23 nM
same,[RD3]1/2: RD3 concentration causing 50% inhibition of RetGC1 activity preactivated by 1.5 μM GCAP1 in 10 mM Mg2+ and 2 mM EGTA; pair acted on: GCAP1 with the cyclase dimer,[2],2.3 nM
same,[RD3]1/2: RD3 concentration causing 50% inhibition of RetGC1 activity preactivated by 1.5 μM GCAP1 in 10 mM Mg2+ and 2 mM EGTA; pair acted on: GCAP1 with the cyclase dimer,[3],42 nM
RD3-GFP (from UniProt Q7Z3Z2 1-195) (natural protein),PCC (Pearson's correlation coefficient of co-localization),[4],0.91
same,PCC (Pearson's correlation coefficient of co-localization),[5],0.91
same,PCC (Pearson's correlation coefficient of co-localization),[6],0.9
B1,"[GCAP]1/2: half-saturating concentration of Mg2+ GCAP3 for activation of guanylyl cyclase activity in HEK293 membranes (10 mM Mg2+, 2 mM EGTA)",WT human RetGC1 (human) [7],5.3 µM
B2,"[GCAP]1/2: half-saturating concentration of Mg2+ GCAP2 for activation of guanylyl cyclase activity in HEK293 membranes (10 mM Mg2+, 2 mM EGTA)",WT human RetGC1 (human) [7],19 µM
B3,"[GCAP]1/2: half-saturating concentration of Mg2+ GCAP1 for activation of guanylyl cyclase activity in HEK293 membranes (10 mM Mg2+, 2 mM EGTA)",WT human RetGC1 (human) [7],1.13 µM
same,[GCAP]1/2: half-saturating concentration of GCAP1 for RetGC1 activation in 10 mM Mg2+ and 2 mM EGTA (Fig. 10C),[1],0.4 µM
same,[GCAP]1/2: half-saturating concentration of GCAP1 for RetGC1 activation in 10 mM Mg2+ and 2 mM EGTA (Fig. 10C),[2],1.65 µM
same,[GCAP]1/2: half-saturating concentration of GCAP1 for RetGC1 activation in 10 mM Mg2+ and 2 mM EGTA (Fig. 10C),WT human RetGC1 (human) [8],1.1 µM
same,[GCAP]1/2: half-saturating concentration of GCAP1 for RetGC1 activation in 10 mM Mg2+ and 2 mM EGTA (Fig. 10C),[3],0.22 µM
same,"[GCAP1]1/2: half-saturating concentration of Mg2+ GCAP1 for activation of guanylyl cyclase activity in HEK293 membranes (10 mM Mg2+, 2 mM EGTA)",R666W RetGC1 (human),7.25 µM
B4,PCC (Pearson's correlation coefficient of co-localization),[9],0.9
same,PCC (Pearson's correlation coefficient of co-localization),[10],0.89
same,PCC (Pearson's correlation coefficient of co-localization),[11],0.64
same,PCC (Pearson's correlation coefficient of co-localization),[12],0.64
same,PCC (Pearson's correlation coefficient of co-localization),[13],0.89
same,PCC (Pearson's correlation coefficient of co-localization),[14],0.87

# — publication PMC7939455
